Columns and labels:
[1] = molecular target: T1, total (intracellular) vimentin of human cancer cells (human, UniProt P08670 2-466); assay: confocal microscopy, intracellular staining
T1 construct: Endogenous protein in lysates or in permeabilized cells; also called total vimentin; cytoplasmic vimentin

[2] = molecular target: T2, cell-surface vimentin on canine circulating tumor cells (canine, UniProt A0A8C0N8E3 2-466); assay: isolation and confocal microscopy of CTC from canine blood
T2 construct: also called CSV

[3] = molecular target: vimentin-derived peptides (10, 12 and 15 aa peptides on the peptide microarray); assay: peptide microarray; 84-1 at 0.2 ug/mL compared with 12-1 at 1 ug/mL
[4] = molecular target: T3, cell-surface vimentin on mouse cancer cells (LM8) (mouse, UniProt P20152 2-466); assay: immunofluorescence staining of mouse LM8 cells spiked into blood
T3 construct: whole, on cells; also called CSV
Protocol: FIG. 2B: Detection of single cell spiked into blood using fluorescence microscopy. Single LM8 cell was isolated using serial dilution and spot analysis and spiked into 1 ml of blood. After RBC lysis, mononucleated cell population was stained for 84-1 mAb and AlexaFluor-488 secondary antibody to detect CSV positive cells. […] FIG. 2C: Isolation of single cell from whole blood. Single cell spiked into whole blood was isolated using EasySep based 84-1 positive and CD45 negative selection. This single cell was observable on the culture dish 2 hr after incubation at 37° C. FIG. 2D: Micrographs of cells isolated from blood were costained using antibodies against CSV, CD45 and a nuclear stain DRAQ5. Scale indicates 10 μm. FIG. 2E: Enumeration of CSV positive CTCs from healthy, primary and metastatic patient blood specimens. Blood from the primary cancer patients was used to select threshold of detection (dashed line).
Based on the detection of CSV in a range of cancer cell lines of both epithelial and non-epithelial origin, the inventors hypothesized that it could serve as a biomarker to detect CTC. […] From micrographs it is evident that single cell is detectable in whole blood utilizing fluorescence microscopy (FIG. 2B). […] The inventors further evaluated the sensitivity and specificity of 84-1 antibody using HLM3 and LM7 cells that are positive for 84-1 staining (Table 5).

[5] = molecular target: T4, cell-surface vimentin (CSV) on human cancer cells (human, UniProt P08670 2-466); assay: screening on osteosarcoma cell lines with and without vimentin on the cell surface
T4 construct: whole, on cells; Endogenous vimentin on the surface of non-permeabilized cancer cells
T4 sequence (P08670 2-466): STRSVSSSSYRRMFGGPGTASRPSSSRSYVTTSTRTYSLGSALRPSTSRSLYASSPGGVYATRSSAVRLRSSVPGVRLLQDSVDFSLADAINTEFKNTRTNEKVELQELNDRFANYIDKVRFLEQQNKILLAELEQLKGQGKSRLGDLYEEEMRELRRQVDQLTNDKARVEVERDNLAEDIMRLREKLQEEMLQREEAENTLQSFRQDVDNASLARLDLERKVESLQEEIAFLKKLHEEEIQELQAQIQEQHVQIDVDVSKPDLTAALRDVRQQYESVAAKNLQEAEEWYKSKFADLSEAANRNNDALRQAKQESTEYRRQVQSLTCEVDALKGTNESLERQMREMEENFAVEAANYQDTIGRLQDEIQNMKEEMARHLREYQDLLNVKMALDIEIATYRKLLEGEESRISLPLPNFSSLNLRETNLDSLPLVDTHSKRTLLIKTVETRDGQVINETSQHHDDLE

T1 sequence (P08670 2-466 limits assumed): as the sequence (P08670 2-466) above
T2 sequence (A0A8C0N8E3 2-466 limits assumed): as the sequence (P08670 2-466) above, with A20G, S26T, V59A, N200S, E238D, E250D, V257M, T316N, S411A counted along it
T3 sequence (P20152 2-466): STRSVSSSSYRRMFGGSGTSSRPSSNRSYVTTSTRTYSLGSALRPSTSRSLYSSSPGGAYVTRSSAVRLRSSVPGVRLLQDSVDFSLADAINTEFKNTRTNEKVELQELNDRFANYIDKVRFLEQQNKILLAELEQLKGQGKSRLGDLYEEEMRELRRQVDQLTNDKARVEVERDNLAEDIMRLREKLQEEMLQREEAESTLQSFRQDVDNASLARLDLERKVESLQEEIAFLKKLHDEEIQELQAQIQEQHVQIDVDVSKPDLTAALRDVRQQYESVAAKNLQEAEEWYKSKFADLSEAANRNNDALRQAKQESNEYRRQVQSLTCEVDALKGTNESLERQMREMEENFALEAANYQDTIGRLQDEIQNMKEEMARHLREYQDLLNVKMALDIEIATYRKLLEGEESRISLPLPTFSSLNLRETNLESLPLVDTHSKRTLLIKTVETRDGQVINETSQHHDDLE

- binding result [1]: binds
- binding result [2]: binds
- spot intensity relative to antibody 12-1 [3]: 2 fold
- binding result [4]: binds
- binding result [5]: binds
B1: 84-1 monoclonal antibody (antibody, V domains shown)
VH: QVQLKQSGPGLVQPSQSLSITCTVSGFSLTRYGVHWVRQSPGKGLEWLGVIWSGGSTDYNAAFISRLSFSKDNSKSQVFFKMNSLQANDTAIYYCARRSYYYAMDYWGQGTSVTVS
VL: DVLMTQTPLSLPVSLGDQASISCRSSQSIVHRIGNTYLEWYLQKPGQSPKLLIYKVSNRFSGVPDRFSGSGSGTDFTLKISRVEAEDLGVYYCFQGSHVPLTFGAGTKLEL
notes: Mouse monoclonal antibody from hybridoma 84-1, raised against rhVim with 6-His; It was detected with anti-mouse IgG; also called 84-1 mAb; 84-1 antibody
